target: T1, human serum albumin (human, UniProt P02768 25-609); test: SPR, Fab captured; albumin taken as HSA
T1 construct: mature; Bought purified serum albumin; also called HSA; Human albumin
Procedure: Each assay cycle consisted of firstly capturing the antibody sample using a 1 min injection, before an association phase consisting of a 3 min injection of albumin, after which dissociation was monitored. After each cycle, the capture surface was regenerated with two 1 min injections of 40 mM HCl followed by 30 s of 5 mM NaOH. The flow rates used were 10 μl/min for capture, 30 μl/min for both the association and dissociation phases, and 10 μl/min for regeneration. A blank flow-cell was used for reference subtraction and buffer-blank injections were included to subtract instrument noise and drift.

| Binder | Kd [nM] | koff [s⁻¹] | kon [M⁻¹ s⁻¹] |
| --- | --- | --- | --- |
| CA645 gL4gH45 Fab (Fab, V domains shown, Fab: human gamma1 CH1, human kappa (Km3); Kabat numbering) VH: EVQLLESGGGLVQPGGSLRLSCAVSGIDLSNYAINWVRQAPGKGLEWIGIIWASGTTFYATWAKGRFTISRDNSKNTVYLQMNSLRAEDTAVYYCARTVPVYSTAPYFDLWGQGTLVTVSS VL: DIQMTQSPSSVSASVGDRVTITCQSSPSVWSNFLSWYQQKPGKAPKLLIYEASKLTSGVPSRFSGSGSGTDFTLTISSLQPEDFATYYCGGGYSSISDTTFGGGTKVEIK | 8.25 | 0.000444 | 53800 |
| CA645 gL14gH5 Fab (Fab, V domains shown, Fab: human gamma1 CH1, human kappa (Km3); Kabat numbering) VH: EVQLLESGGGLVQPGGSLRLSCAVSGIDLSNYAINWVRQAPGKGLEWIGIIWASGTTFYATWAKGRFTISRDNSKNTVYLQMNSLRAEDTAVYYCARTVPGYSTAPYFDLWGQGTLVTVSS VL: DIQMTQSPSSVSASVGDRVTITCQSSPLVWSNFLSWYQQKPGKAPKLLIYEASKLTSGVPSRFSGSGSGTDFTLTISSLQPEDFATYYCGGGYSSISDTTFGGGTKVEIK | 1.51 | 8.7e-05 | 57700 |
| CA645 gL34gH5 Fab (Fab, V domains shown, Fab: human gamma1 CH1, human kappa (Km3); Kabat numbering) VH: EVQLLESGGGLVQPGGSLRLSCAVSGIDLSNYAINWVRQAPGKGLEWIGIIWASGTTFYATWAKGRFTISRDNSKNTVYLQMNSLRAEDTAVYYCARTVPGYSTAPYFDLWGQGTLVTVSS VL: DIQMTQSPSSVSASVGDRVTITCQSSPSVWSNFLSWYQQKPGKAPKLLIYEASKLTSGVPSRFSGSGSGTDFTLTISSLQPEDFATYYCGGGYTSISDTTFGGGTKVEIK | 3.41 | 0.00019 | 55800 |
| CA645 gL13gH5 Fab (Fab, V domains shown, Fab: human gamma1 CH1, human kappa (Km3); Kabat numbering) VH: EVQLLESGGGLVQPGGSLRLSCAVSGIDLSNYAINWVRQAPGKGLEWIGIIWASGTTFYATWAKGRFTISRDNSKNTVYLQMNSLRAEDTAVYYCARTVPGYSTAPYFDLWGQGTLVTVSS VL: DIQMTQSPSSVSASVGDRVTITCQSSPIVWSNFLSWYQQKPGKAPKLLIYEASKLTSGVPSRFSGSGSGTDFTLTISSLQPEDFATYYCGGGYSSISDTTFGGGTKVEIK | 1.88 | 0.000108 | 57600 |
| CA645 gL4gH43 Fab (Fab, V domains shown, Fab: human gamma1 CH1, human kappa (Km3); Kabat numbering) VH: EVQLLESGGGLVQPGGSLRLSCAVSGIDLSNYAINWVRQAPGKGLEWIGIIWASGTTFYATWAKGRFTISRDNSKNTVYLQMNSLRAEDTAVYYCARTVPEYSTAPYFDLWGQGTLVTVSS VL: DIQMTQSPSSVSASVGDRVTITCQSSPSVWSNFLSWYQQKPGKAPKLLIYEASKLTSGVPSRFSGSGSGTDFTLTISSLQPEDFATYYCGGGYSSISDTTFGGGTKVEIK | 7.39 | 0.000391 | 52900 |
| CA645 gL4gH42 Fab (Fab, V domains shown, Fab: human gamma1 CH1, human kappa (Km3); Kabat numbering) VH: EVQLLESGGGLVQPGGSLRLSCAVSGIDLSNYAINWVRQAPGKGLEWIGIIWASGTTFYATWAKGRFTISRDNSKNTVYLQMNSLRAEDTAVYYCARTVPQYSTAPYFDLWGQGTLVTVSS VL: DIQMTQSPSSVSASVGDRVTITCQSSPSVWSNFLSWYQQKPGKAPKLLIYEASKLTSGVPSRFSGSGSGTDFTLTISSLQPEDFATYYCGGGYSSISDTTFGGGTKVEIK | 4.17 | 0.000222 | 53100 |
| CA645 gL12gH5 Fab (Fab, V domains shown, Fab: human gamma1 CH1, human kappa (Km3); Kabat numbering) VH: EVQLLESGGGLVQPGGSLRLSCAVSGIDLSNYAINWVRQAPGKGLEWIGIIWASGTTFYATWAKGRFTISRDNSKNTVYLQMNSLRAEDTAVYYCARTVPGYSTAPYFDLWGQGTLVTVSS VL: DIQMTQSPSSVSASVGDRVTITCQSSPDVWSNFLSWYQQKPGKAPKLLIYEASKLTSGVPSRFSGSGSGTDFTLTISSLQPEDFATYYCGGGYSSISDTTFGGGTKVEIK | 1.88 | 0.000104 | 55400 |
| CA645 gL35gH5 Fab (Fab, V domains shown, Fab: human gamma1 CH1, human kappa (Km3); Kabat numbering) VH: EVQLLESGGGLVQPGGSLRLSCAVSGIDLSNYAINWVRQAPGKGLEWIGIIWASGTTFYATWAKGRFTISRDNSKNTVYLQMNSLRAEDTAVYYCARTVPGYSTAPYFDLWGQGTLVTVSS VL: DIQMTQSPSSVSASVGDRVTITCQSSPSVWSNFLSWYQQKPGKAPKLLIYEASKLTSGVPSRFSGSGSGTDFTLTISSLQPEDFATYYCGGGYVSISDTTFGGGTKVEIK | 5.57 | 0.00029 | 52100 |
| CA645 gL4gH44 Fab (Fab, V domains shown, Fab: human gamma1 CH1, human kappa (Km3); Kabat numbering) VH: EVQLLESGGGLVQPGGSLRLSCAVSGIDLSNYAINWVRQAPGKGLEWIGIIWASGTTFYATWAKGRFTISRDNSKNTVYLQMNSLRAEDTAVYYCARTVPLYSTAPYFDLWGQGTLVTVSS VL: DIQMTQSPSSVSASVGDRVTITCQSSPSVWSNFLSWYQQKPGKAPKLLIYEASKLTSGVPSRFSGSGSGTDFTLTISSLQPEDFATYYCGGGYSSISDTTFGGGTKVEIK | 4.22 | 0.000226 | 53500 |
| CA645 gL10gH5 Fab (Fab, V domains shown, Fab: human gamma1 CH1, human kappa (Km3); Kabat numbering) VH: EVQLLESGGGLVQPGGSLRLSCAVSGIDLSNYAINWVRQAPGKGLEWIGIIWASGTTFYATWAKGRFTISRDNSKNTVYLQMNSLRAEDTAVYYCARTVPGYSTAPYFDLWGQGTLVTVSS VL: DIQMTQSPSSVSASVGDRVTITCQSSPAVWSNFLSWYQQKPGKAPKLLIYEASKLTSGVPSRFSGSGSGTDFTLTISSLQPEDFATYYCGGGYSSISDTTFGGGTKVEIK | 1.03 | 0.000172 | 138000 |
| CA645 gL27gH5 Fab (Fab, V domains shown, Fab: human gamma1 CH1, human kappa (Km3); Kabat numbering) VH: EVQLLESGGGLVQPGGSLRLSCAVSGIDLSNYAINWVRQAPGKGLEWIGIIWASGTTFYATWAKGRFTISRDNSKNTVYLQMNSLRAEDTAVYYCARTVPGYSTAPYFDLWGQGTLVTVSS VL: DIQMTQSPSSVSASVGDRVTITCQSSPSVWSNYLSWYQQKPGKAPKLLIYEASKLTSGVPSRFSGSGSGTDFTLTISSLQPEDFATYYCGGGYSSISDTTFGGGTKVEIK | 9.44 | 0.000586 | 62100 |

target: T1, human serum albumin; test: SPR, Fab captured; albumin taken as HSA; remark: another data set of the same source

| Binder | Kd [nM] | koff [s⁻¹] | kon [M⁻¹ s⁻¹] |
| --- | --- | --- | --- |
| CA645 gL4gH31 Fab (Fab, V domains shown, Fab: human gamma1 CH1, human kappa (Km3); Kabat numbering) VH: EVQLLESGGGLVQPGGSLRLSCAVSGIDLSNYAINWVRQAPGKGLEWIGIIWAVGTTFYATWAKGRFTISRDNSKNTVYLQMNSLRAEDTAVYYCARTVPGYSTAPYFDLWGQGTLVTVSS VL: DIQMTQSPSSVSASVGDRVTITCQSSPSVWSNFLSWYQQKPGKAPKLLIYEASKLTSGVPSRFSGSGSGTDFTLTISSLQPEDFATYYCGGGYSSISDTTFGGGTKVEIK | 4.18 | 0.000167 | 40000 |
| CA645 gL15gH5 Fab (Fab, V domains shown, Fab: human gamma1 CH1, human kappa (Km3); Kabat numbering) VH: EVQLLESGGGLVQPGGSLRLSCAVSGIDLSNYAINWVRQAPGKGLEWIGIIWASGTTFYATWAKGRFTISRDNSKNTVYLQMNSLRAEDTAVYYCARTVPGYSTAPYFDLWGQGTLVTVSS VL: DIQMTQSPSSVSASVGDRVTITCQSSPSVWRNFLSWYQQKPGKAPKLLIYEASKLTSGVPSRFSGSGSGTDFTLTISSLQPEDFATYYCGGGYSSISDTTFGGGTKVEIK | 4.62 | 0.000277 | 60100 |
| CA645 gL4gH34 Fab (Fab, V domains shown, Fab: human gamma1 CH1, human kappa (Km3); Kabat numbering) VH: EVQLLESGGGLVQPGGSLRLSCAVSGIDLSNYAINWVRQAPGKGLEWIGIIWAQGTTFYATWAKGRFTISRDNSKNTVYLQMNSLRAEDTAVYYCARTVPGYSTAPYFDLWGQGTLVTVSS VL: DIQMTQSPSSVSASVGDRVTITCQSSPSVWSNFLSWYQQKPGKAPKLLIYEASKLTSGVPSRFSGSGSGTDFTLTISSLQPEDFATYYCGGGYSSISDTTFGGGTKVEIK | 11 | 0.000422 | 38500 |
| CA645 gL4gH32 Fab (Fab, V domains shown, Fab: human gamma1 CH1, human kappa (Km3); Kabat numbering) VH: EVQLLESGGGLVQPGGSLRLSCAVSGIDLSNYAINWVRQAPGKGLEWIGIIWAIGTTFYATWAKGRFTISRDNSKNTVYLQMNSLRAEDTAVYYCARTVPGYSTAPYFDLWGQGTLVTVSS VL: DIQMTQSPSSVSASVGDRVTITCQSSPSVWSNFLSWYQQKPGKAPKLLIYEASKLTSGVPSRFSGSGSGTDFTLTISSLQPEDFATYYCGGGYSSISDTTFGGGTKVEIK | 4.38 | 0.000169 | 38600 |
| CA645 gL4gH35 Fab (Fab, V domains shown, Fab: human gamma1 CH1, human kappa (Km3); Kabat numbering) VH: EVQLLESGGGLVQPGGSLRLSCAVSGIDLSNYAINWVRQAPGKGLEWIGIIWAEGTTFYATWAKGRFTISRDNSKNTVYLQMNSLRAEDTAVYYCARTVPGYSTAPYFDLWGQGTLVTVSS VL: DIQMTQSPSSVSASVGDRVTITCQSSPSVWSNFLSWYQQKPGKAPKLLIYEASKLTSGVPSRFSGSGSGTDFTLTISSLQPEDFATYYCGGGYSSISDTTFGGGTKVEIK | 15.1 | 0.000399 | 26500 |
| CA645 gL17gH5 Fab (Fab, V domains shown, Fab: human gamma1 CH1, human kappa (Km3); Kabat numbering) VH: EVQLLESGGGLVQPGGSLRLSCAVSGIDLSNYAINWVRQAPGKGLEWIGIIWASGTTFYATWAKGRFTISRDNSKNTVYLQMNSLRAEDTAVYYCARTVPGYSTAPYFDLWGQGTLVTVSS VL: DIQMTQSPSSVSASVGDRVTITCQSSPSVWNNFLSWYQQKPGKAPKLLIYEASKLTSGVPSRFSGSGSGTDFTLTISSLQPEDFATYYCGGGYSSISDTTFGGGTKVEIK | 5.5 | 0.000323 | 58800 |
| CA645 gL4gH33 Fab (Fab, V domains shown, Fab: human gamma1 CH1, human kappa (Km3); Kabat numbering) VH: EVQLLESGGGLVQPGGSLRLSCAVSGIDLSNYAINWVRQAPGKGLEWIGIIWALGTTFYATWAKGRFTISRDNSKNTVYLQMNSLRAEDTAVYYCARTVPGYSTAPYFDLWGQGTLVTVSS VL: DIQMTQSPSSVSASVGDRVTITCQSSPSVWSNFLSWYQQKPGKAPKLLIYEASKLTSGVPSRFSGSGSGTDFTLTISSLQPEDFATYYCGGGYSSISDTTFGGGTKVEIK | 6.18 | 0.00024 | 38900 |
| CA645 gL16gH5 Fab (Fab, V domains shown, Fab: human gamma1 CH1, human kappa (Km3); Kabat numbering) VH: EVQLLESGGGLVQPGGSLRLSCAVSGIDLSNYAINWVRQAPGKGLEWIGIIWASGTTFYATWAKGRFTISRDNSKNTVYLQMNSLRAEDTAVYYCARTVPGYSTAPYFDLWGQGTLVTVSS VL: DIQMTQSPSSVSASVGDRVTITCQSSPSVWWNFLSWYQQKPGKAPKLLIYEASKLTSGVPSRFSGSGSGTDFTLTISSLQPEDFATYYCGGGYSSISDTTFGGGTKVEIK | 3.06 | 0.000169 | 55300 |

Reference: patent US20190144529A1 (UCB, published 2019)
